From article PMC9540345

Biological target: FLAG-HA epitope-tagged H3.1 (UniProt P68431)
Assay: proximity ligation

DAXX (death domain-associated protein 6) (from UniProt Q9UER7 1-740) (natural protein)
fold enrichment of PLA foci over empty vector control cells: 1.9 fold
